Tests used:
[1] = target: Anti-DSG2 antibody; assay: anti-DSG2 antibody MSD assay; fraction C; inhibition of the signal of anti-DSG2 antibody at 200 ng/mL (control)
[2] = target: Anti-DSG2 antibody; assay: anti-DSG2 antibody MSD assay; fraction C; inhibition of the signal of anti-DSG2 antibody at 1000 ng/mL (control)
[3] = tested on: anti-DSG2 antibody; assay: Anti-DSG2 antibody Meso Scale Discovery (MSD) blocking assay, anti-DSG2 antibody controls; assay type: binding; conditions: for ability to bind to and block anti-DSG2 antibody: MSD assay; for % inhibition: fraction C
Description: (§1) The DSG2 fusion polypeptides were tested for the ability to block anti-DSG2 antibody by an anti-DSG2 antibody Meso Scale Discovery (MSD) assay. […] The DSG2 fusion polypeptides were subjected to size exclusion chromatography and different elution fractions were examined. […] As shown in Table 9 and FIG. 4B, FIG. 4C, and FIG. 4D, enriching for fraction C improved the ability of the DSG2 fusion polypeptides to block ARVC patient serum.

[4] = Melting temperature Tm of DSG2 fusion polypeptides; assay type: physicochemical
From the text: As the temperature increased, the aggregates began to move, unfold and spread apart.

[5] = Dynamic light scattering (DLS) of DSG2 fusion polypeptides; assay type: physicochemical; conditions: for PDI: polymer distribution index
From the text: 6 candidates were compared to the reference sample.

[6] = target: Anti-DSG2 antibody; assay: electrochemical immunoassay; blocking of anti-DSG2 antibodies (500 ng/mL) binding to DSG2 extracellular domain; fusion polypeptide 5 mg/mL as printed
[7] = tested on: ARVC serum (serum obtained from ARVC patients); assay: Anti-DSG2 antibody Meso Scale Discovery (MSD) blocking assay, ARVC serum; assay type: binding, human; conditions: for % inhibition: fraction C; for effect of enriching for fraction C on ability to block ARVC patient serum: size exclusion fraction C vs whole preparation, FIG. 4B-4D
Description: as §1

[8] = sample: Anti-DSG2 antibody (200 ng/mL) control
[9] = sample: Anti-DSG2 antibody (1000 ng/mL) control

DSG2-EAAAK-(IgG1)Fc (Fc fusion)
% inhibition [1]: 61.2%
% inhibition [2]: 85.5%

DSG2FP#6: DSG2 extracellular domain (50-609 of SEQ ID NO: 1); amino acids 99-327 of IgG4 (S228P, L235E, P329G) (SEQ ID NO: 32)
ability to bind to and block anti-DSG2 antibody [3]: able to bind to and block anti-DSG2 antibodies
Tm1 [4]: 51.1 °C
Tm2 [4]: 60.0 °C
Peak 1 mass % [5]: ~99%
Peak 1 mode diameter [5]: 98.03 nm
PDI [5]: 0.32

DSG2FP#5: amino acids 104-330 of IgG1 (L234A, L235A, P329G; SEQ ID NO: 31); DSG2 extracellular domain (50-609 of SEQ ID NO: 1)
ability to bind to and block anti-DSG2 antibody [3]: able to bind to and block anti-DSG2 antibodies
Tm1 [4]: 65.0 °C
Peak 1 mass % [5]: ~99%
Peak 1 mode diameter [5]: 76.72 nm
PDI [5]: 0.31

DSG2FP#7: DSG2 extracellular domain (50-609 of SEQ ID NO: 1); GGGGS peptide linker; IgG4 Fc (S228P, L235E, P329G) (SEQ ID NO: 32)
ability to bind to and block anti-DSG2 antibody [3]: able to bind to and block anti-DSG2 antibodies
Tm1 [4]: 53.4 °C
Tm2 [4]: 60.0 °C
Peak 1 mass % [5]: ~97%
Peak 1 mode diameter [5]: 86.23 nm
PDI [5]: 0.30

DSG2-(IgG4)Fc (Fc fusion)
% inhibition [6]: > 80%

DSG2-GGGGS-(IgG1)Fc (Fc fusion)
% inhibition [1]: 61.2%
% inhibition [2]: 85.5%

DSG2-GGGGS-(IgG4)Fc (Fc fusion)
% inhibition [6]: > 80%

DSG2-(IgG1)Fc (Fc fusion)
% inhibition [1]: 54.5%
% inhibition [2]: 81.6%

B1: DSG2FP#3: DSG2 extracellular domain (50-609 of SEQ ID NO: 1); linker GGGGS; amino acids 104-330 of IgG1 (L234A, L235A, P329G) (protein)
chain: AWITAPVALREGEDLSKKNPIAKIHSDLAEERGLKITYKYTGKGITEPPFGIFVFNKDTGELNVTSILDREETPFFLLTGYALDARGNNVEKPLELRIKVLDINDNEPVFTQDVFVGSVEELSAAHTLVMKINATDADEPNTLNSKISYRIVSLEPAYPPVFYLNKDTGEIYTTSVTLDREEHSSYTLTVEARDGNGEVTDKPVKQAQVQIRILDVNDNIPVVENKVLEGMVEENQVNVEVTRIKVFDADEIGSDNWLANFTFASGNEGGYFHIETDAQTNEGIVTLIKEVDYEEMKNLDFSVIVANKAAFHKSIRSKYKPTPIPIKVKVKNVKEGIHFKSSVISIYVSESMDRSSKGQIIGNFQAFDEDTGLPAHARYVKLEDRDNWISVDSVTSEIKLAKLPDFESRYVQNGTYTVKIVAISEDYPRKTITGTVLINVEDINDNCPTLIEPVQTICHDAEYVNVTAEDLDGHPNSGPFSFSVIDKPPGMAEKWKIARQESTSVLLQQSEKKLGRSEIQFLISDNQGFSCPEKQVLTLTVCECLHGSGCREAQHDSYVGGGGGGSDKTHTCPPCPAPEAAGGPSVFLFPPKPKDTLMISRTPEVTCVVVDVSHEDPEVKFNWYVDGVEVHNAKTKPREEQYNSTYRVVSVLTVLHQDWLNGKEYKCKVSNKALGAPIEKTISKAKGQPREPQVYTLPPSRDELTKNQVSLTCLVKGFYPSDIAVEWESNGQPENNYKTTPPVLDSDGSFFLYSKLTVDKSRWQQGNVFSCSVMHEALHNHYTQKSLSLSPGK
ability to bind to and block anti-DSG2 antibody [3]: able to bind to and block anti-DSG2 antibodies
% inhibition [3, 8]: 61.2%
% inhibition [3, 9]: 85.5%
% inhibition ([3]; sample: no antibody control): 0.7%
% inhibition ([7]; sample: ARVC serum 1): 9.2%
% inhibition ([7]; sample: ARVC serum 2): 27.6%
% inhibition ([7]; sample: ARVC serum 3): 15.5%
% inhibition ([7]; sample: ARVC serum 4): −5.6%
% inhibition ([7]; sample: ARVC serum 5): 20.6%
effect of enriching for fraction C on ability to block ARVC patient serum [7]: more pronounced
Tm1 [4]: 51.3 °C
Tm2 [4]: 62.8 °C
Tm3 [4]: 82.1 °C
Peak 1 mass % [5]: ~91%
Peak 1 mode diameter [5]: 43.23 nm
PDI [5]: 0.30

B2: DSG2FP#4: DSG2 extracellular domain (50-609 of SEQ ID NO: 1); linker EAAAK; amino acids 104-330 of IgG1 (L234A, L235A, P329G) (protein)
chain: AWITAPVALREGEDLSKKNPIAKIHSDLAEERGLKITYKYTGKGITEPPFGIFVFNKDTGELNVTSILDREETPFFLLTGYALDARGNNVEKPLELRIKVLDINDNEPVFTQDVFVGSVEELSAAHTLVMKINATDADEPNTLNSKISYRIVSLEPAYPPVFYLNKDTGEIYTTSVTLDREEHSSYTLTVEARDGNGEVTDKPVKQAQVQIRILDVNDNIPVVENKVLEGMVEENQVNVEVTRIKVFDADEIGSDNWLANFTFASGNEGGYFHIETDAQTNEGIVTLIKEVDYEEMKNLDFSVIVANKAAFHKSIRSKYKPTPIPIKVKVKNVKEGIHFKSSVISIYVSESMDRSSKGQIIGNFQAFDEDTGLPAHARYVKLEDRDNWISVDSVTSEIKLAKLPDFESRYVQNGTYTVKIVAISEDYPRKTITGTVLINVEDINDNCPTLIEPVQTICHDAEYVNVTAEDLDGHPNSGPFSFSVIDKPPGMAEKWKIARQESTSVLLQQSEKKLGRSEIQFLISDNQGFSCPEKQVLTLTVCECLHGSGCREAQHDSYVGEAAAKDKTHTCPPCPAPEAAGGPSVFLFPPKPKDTLMISRTPEVTCVVVDVSHEDPEVKFNWYVDGVEVHNAKTKPREEQYNSTYRVVSVLTVLHQDWLNGKEYKCKVSNKALGAPIEKTISKAKGQPREPQVYTLPPSRDELTKNQVSLTCLVKGFYPSDIAVEWESNGQPENNYKTTPPVLDSDGSFFLYSKLTVDKSRWQQGNVFSCSVMHEALHNHYTQKSLSLSPGK
ability to bind to and block anti-DSG2 antibody [3]: able to bind to and block anti-DSG2 antibodies
% inhibition [3, 8]: 61.2%
% inhibition [3, 9]: 85.5%
% inhibition ([3]; sample: no antibody control): 0.7%
% inhibition ([7]; sample: ARVC serum 1): 6.0%
% inhibition ([7]; sample: ARVC serum 2): 9.2%
% inhibition ([7]; sample: ARVC serum 3): −8.0%
% inhibition ([7]; sample: ARVC serum 4): 0.8%
% inhibition ([7]; sample: ARVC serum 5): 2.0%
Tm1 [4]: 50.7 °C
Tm2 [4]: 63.1 °C
Tm3 [4]: 81.5 °C
Peak 1 mass % [5]: ~96%
Peak 1 mode diameter [5]: 44.87 nm
PDI [5]: 0.32

B3: DSG2FP#2: DSG2 extracellular domain (amino acids 50-609 of SEQ ID NO: 1); amino acids 104-330 of IgG1 (L234A, L235A, P329G) (SEQ ID NO: 31) (protein)
chain: AWITAPVALREGEDLSKKNPIAKIHSDLAEERGLKITYKYTGKGITEPPFGIFVFNKDTGELNVTSILDREETPFFLLTGYALDARGNNVEKPLELRIKVLDINDNEPVFTQDVFVGSVEELSAAHTLVMKINATDADEPNTLNSKISYRIVSLEPAYPPVFYLNKDTGEIYTTSVTLDREEHSSYTLTVEARDGNGEVTDKPVKQAQVQIRILDVNDNIPVVENKVLEGMVEENQVNVEVTRIKVFDADEIGSDNWLANFTFASGNEGGYFHIETDAQTNEGIVTLIKEVDYEEMKNLDFSVIVANKAAFHKSIRSKYKPTPIPIKVKVKNVKEGIHFKSSVISIYVSESMDRSSKGQIIGNFQAFDEDTGLPAHARYVKLEDRDNWISVDSVTSEIKLAKLPDFESRYVQNGTYTVKIVAISEDYPRKTITGTVLINVEDINDNCPTLIEPVQTICHDAEYVNVTAEDLDGHPNSGPFSFSVIDKPPGMAEKWKIARQESTSVLLQQSEKKLGRSEIQFLISDNQGFSCPEKQVLTLTVCECLHGSGCREAQHDSYVGDKTHTCPPCPAPEAAGGPSVFLFPPKPKDTLMISRTPEVTCVVVDVSHEDPEVKFNWYVDGVEVHNAKTKPREEQYNSTYRVVSVLTVLHQDWLNGKEYKCKVSNKALGAPIEKTISKAKGQPREPQVYTLPPSRDELTKNQVSLTCLVKGFYPSDIAVEWESNGQPENNYKTTPPVLDSDGSFFLYSKLTVDKSRWQQGNVFSCSVMHEALHNHYTQKSLSLSPGK
ability to bind to and block anti-DSG2 antibody [3]: able to bind to and block anti-DSG2 antibodies
% inhibition [3, 8]: 54.5%
% inhibition [3, 9]: 81.6%
% inhibition ([3]; sample: no antibody control): −19.1%
% inhibition ([7]; sample: ARVC serum 1): 3.0%
% inhibition ([7]; sample: ARVC serum 2): 33.5%
% inhibition ([7]; sample: ARVC serum 3): 26.0%
% inhibition ([7]; sample: ARVC serum 4): 51.1%
% inhibition ([7]; sample: ARVC serum 5): 41.8%
effect of enriching for fraction C on ability to block ARVC patient serum [7]: more pronounced
Tm1 [4]: 52.0 °C
Tm2 [4]: 61.9 °C
Tm3 [4]: 81.9 °C
Peak 1 mass % [5]: ~96%
Peak 1 mode diameter [5]: 40.04 nm
PDI [5]: 0.32

From patent publication US20240043495A1, “DSG2 COMPOSITIONS AND METHODS FOR THE TREATMENT OF COVID-19” (priority 2020, published 2024)
